# Earlier results in paper PMC9241160.
# Molecular target: Fibrinogen beta chain N-terminal fibrinopeptide (Homo sapiens) (UniProt P02675)
substance,measurement,value
SdrG N2-N3 (from UniProt Q9KI13),Kd,400 nM
